Starred links: 1 amine or outer side, 2 acyl side, 3 side chain; linkers in the order of their positions; H or OH if unused. Positions of bridges follow the written chain, without caps; N, C: chain ends. Non-standard residues stand in square brackets, D forms with d. Primed or numbered codes have the meaning given here. *: point of attachment. PyrS2″ = (S)-3-amino-1-((pent-4-en-1-yloxy)carbonyl)pyrrolidine-3-carboxylic acid (stapling residue), C=CCCCOC(=O)N1CC[C@@](N[*:1])(C(=O)[*:2])C1; (MorphAc)GAbu = (S)-2-amino-4-(N-(carboxymethyl)-2-morpholinoacetamido)butanoic acid, O=C(CN1CCOCC1)N(CC[C@H](N[*:1])C(=O)[*:2])CC(=O)[*:3]; TfeGA = (S)-2-amino-3-((carboxymethyl)(2,2,2-trifluoroethyl)amino)propanoic acid, O=C([C@H](CN(CC(=O)[*:3])CC(F)(F)F)N[*:1])[*:2]; PyrS2 = (S)-3-amino-1-((pent-4-en-1-yloxy)carbonyl)pyrrolidine-3-carboxylic acid, C=CCCCOC(=O)N1CC[C@@](N[*:1])(C(=O)[*:2])C1; B5(22) = 2-amino-2-(pent-4-en-1-yl)hept-6-enoic acid (two alkene side chains), C=CCCCC(CCCC=C)(N[*:1])C(=O)[*:2]; HypEs5 = (2R,4S)-4-(pent-4-enoyloxy)pyrrolidine-2-carboxylic acid, C=CCCC(=O)O[C@H]1C[C@H](C(=O)[*:2])N([*:1])C1; GAbu = (S)-2-amino-4-((carboxymethyl)amino)butanoic acid, O=C([C@H](CCNCC(=O)[*:3])N[*:1])[*:2]; B5(3) = 2,2-bis(4-pentenyl)glycine (stitching residue), C=CCCCC(CCCC=C)(N[*:1])C(=O)[*:2]; B5 = 2-amino-2-(pent-4-en-1-yl)hept-6-enoic acid, C=CCCCC(CCCC=C)(N[*:1])C(=O)[*:2]; Phenylacetyl(2,3,4,5,6-F5) = O=C(Cc1c(F)c(F)c(F)c(F)c1F)*; Benzoyl(2,3,4,5,6-F5) = O=C(c1c(F)c(F)c(F)c(F)c1F)*; Acetyl(4-Me-piperazin-1-yl) = CN1CCN(CC(=O)*)CC1; Phe(3-COOH) = N[C@@H](Cc1cccc(C(=O)O)c1)C(=O)O; Ala(4-thiazolyl) = N[C@@H](Cc1cscn1)C(=O)O; Phe(2-Cl) = N[C@@H](Cc1ccccc1Cl)C(=O)O; Phe(3-F) = N[C@@H](Cc1cccc(F)c1)C(=O)O; Phe(4-F) = N[C@@H](Cc1ccc(F)cc1)C(=O)O; 1Nal = N[C@@H](Cc1cccc2ccccc12)C(=O)O; Bta = N[C@@H](Cc1csc2ccccc12)C(=O)O; αAllylPro = C=CC[C@@]1(C(=O)O)CCCN1; tBuAla = CC(C)(C)C[C@H](N)C(=O)O; 3Thi = N[C@@H](Cc1ccsc1)C(=O)O; Cit = NC(=O)NCCC[C@H](N)C(=O)O; S8 = C=CCCCCCC[C@](C)(N)C(=O)O; hSer = N[C@@H](CCO)C(=O)O

B1: I-1099 (peptide)
peptide: Ac-[αAllylPro]D[tBuAla][B5(3)]DDAAFS[PyrS2″]F[Bta]S-NH2
modifications: staple 1-4, 4-11
B2: I-1096 (peptide)
peptide: Ac-[αAllylPro]D[tBuAla][B5(3)]DEAAFL[S8][Phe(2-Cl)][Bta]Q-NH2
modifications: staple 1-4, 4-11
B3: I-1097 (peptide)
peptide: Ac-[αAllylPro]D[tBuAla][B5(3)]DDAAFL[S8][Phe(2-Cl)][Bta][dT]-NH2
modifications: staple 1-4, 4-11
B4: I-1095 (peptide)
peptide: Ac-[αAllylPro]D[tBuAla][B5(3)]DDAAFL[S8][Phe(2-Cl)][Bta]Q-NH2
modifications: staple 1-4, 4-11
B5: I-804 (peptide)
peptide: Ac-[αAllylPro]D[tBuAla][B5(3)]DDAAF[hSer][PyrS2″][3Thi][Bta]H-NH2
modifications: staple 1-4, 4-11
B6: I-813 (peptide)
peptide: Ac-[αAllylPro]D[tBuAla][B5]DDAAFN[PyrS2″][3Thi][Bta][dH]-NH2
modifications: staple 1-4, 4-11
B7: I-812 (peptide)
peptide: Ac-[αAllylPro]D[tBuAla][B5(3)]DDAA[Ala(4-thiazolyl)]N[PyrS2″][3Thi][Bta]Q-NH2
modifications: staple 1-4, 4-11
B8: I-794 (peptide)
peptide: Ac-[αAllylPro]D[tBuAla][B5]DDAAFN[PyrS2][1Nal][Bta]H-NH2
modifications: staple 1-4, 4-11
B9: I-816 (peptide)
peptide: Ac-[αAllylPro]D[tBuAla][B5]DDAAFN[PyrS2″][3Thi][Bta]N-NH2
modifications: staple 1-4, 4-11
B10: I-805 (peptide)
peptide: Ac-[αAllylPro]D[tBuAla][B5(3)]DDAAF[Cit][PyrS2″][3Thi][Bta]Q-NH2
modifications: staple 1-4, 4-11
B11: I-802 (peptide)
peptide: Ac-[αAllylPro]D[tBuAla][B5]DDAAFL[PyrS2][3Thi][Bta]H-NH2
modifications: staple 1-4, 4-11
B12: I-810 (peptide)
peptide: Ac-[αAllylPro]D[tBuAla][B5(3)]DDAAFT[PyrS2″][3Thi][Bta]H-NH2
modifications: staple 1-4, 4-11
B13: I-811 (peptide)
peptide: Ac-[αAllylPro]D[tBuAla][B5(3)]DDAAFN[PyrS2″][Ala(4-thiazolyl)][Bta]Q-NH2
modifications: staple 1-4, 4-11
B14: I-808 (peptide)
peptide: Ac-[αAllylPro]D[tBuAla][B5(3)]DDAAFF[PyrS2″][3Thi][Bta]H-NH2
modifications: staple 1-4, 4-11
B15: I-806 (peptide)
peptide: Ac-[αAllylPro]D[tBuAla][B5(3)]DDAAF[Cit][PyrS2″][3Thi][Bta]H-NH2
modifications: staple 1-4, 4-11
B16: I-807 (peptide)
peptide: Ac-[αAllylPro]D[tBuAla][B5(3)]DDAAFF[PyrS2″][3Thi][Bta]Q-NH2
modifications: staple 1-4, 4-11
B17: I-2262 (peptide)
peptide: Ac-[αAllylPro]D[tBuAla][B5(3)]D[Phe(3-COOH)]AA[Phe(4-F)]L[PyrS2″][3Thi][Bta]A-NH2
modifications: staple 1-4, 4-11
B18: I-2264 (peptide)
peptide: Ac-[HypEs5]D[tBuAla][B5(3)]D[TfeGA]AAFL[PyrS2″][3Thi][Bta]Q-NH2
modifications: staple 1-4, 4-11
B19: I-2261 (peptide)
peptide: Ac-[αAllylPro]D[tBuAla][B5(3)]D[Phe(3-COOH)]AAFL[PyrS2″][Phe(3-F)][Bta]A-NH2
modifications: staple 1-4, 4-11
B20: I-2251 (peptide)
peptide: Ac-[αAllylPro]D[tBuAla][B5(22)]D[GAbu](Phenylacetyl(2,3,4,5,6-F5))AAFL[PyrS2][3Thi][Bta]Q-NH2
modifications: staple 1-4, 4-11
B21: I-2265 (peptide)
peptide: Ac-[HypEs5]D[tBuAla][B5(3)]D[TfeGA]AAFL[PyrS2″][3Thi][Bta]Q-NH2
modifications: staple 1-4, 4-11; also: staple double bonds reduced to -CH2-CH2-
B22: I-2263 (peptide)
peptide: Ac-[αAllylPro]D[tBuAla][B5(3)]D[Phe(3-COOH)]AAFL[PyrS2″][Phe(4-F)][Bta]A-NH2
modifications: staple 1-4, 4-11
B23: I-2259 (peptide)
peptide: Ac-[αAllylPro]D[tBuAla][B5(3)]D[Phe(3-COOH)]AAFF[PyrS2″][3Thi][Bta]A-NH2
modifications: staple 1-4, 4-11
B24: I-2250 (peptide)
peptide: Ac-[αAllylPro]D[tBuAla][B5(22)]D[GAbu](Acetyl(4-Me-piperazin-1-yl))AAFL[PyrS2][3Thi][Bta]Q-NH2
modifications: staple 1-4, 4-11
B25: I-2257 (peptide)
peptide: Ac-[αAllylPro]D[tBuAla][B5(3)]D[Phe(3-COOH)]AAFL[PyrS2″][3Thi][Bta]A-NH2
modifications: staple 1-4, 4-11
B26: I-2260 (peptide)
peptide: Ac-[αAllylPro]D[tBuAla][B5(3)]D[Phe(3-COOH)]AA[Phe(3-F)]L[PyrS2″][3Thi][Bta]A-NH2
modifications: staple 1-4, 4-11
B27: I-2252 (peptide)
peptide: Ac-[αAllylPro]D[tBuAla][B5(22)]D[GAbu](Benzoyl(2,3,4,5,6-F5))AAFL[PyrS2][3Thi][Bta]Q-NH2
modifications: staple 1-4, 4-11
B28: I-2249 (peptide)
peptide: Ac-[αAllylPro]D[tBuAla][B5(22)]D[(MorphAc)GAbu]AAFL[PyrS2][3Thi][Bta]Q-NH2
modifications: staple 1-4, 4-11

For the first assay, the target named is T1, B-cat-Halo (beta-catenin HaloTag fusion construct expressed in HEK293 cells) (UniProt P35222 1-781).
T1 sequence (looked up): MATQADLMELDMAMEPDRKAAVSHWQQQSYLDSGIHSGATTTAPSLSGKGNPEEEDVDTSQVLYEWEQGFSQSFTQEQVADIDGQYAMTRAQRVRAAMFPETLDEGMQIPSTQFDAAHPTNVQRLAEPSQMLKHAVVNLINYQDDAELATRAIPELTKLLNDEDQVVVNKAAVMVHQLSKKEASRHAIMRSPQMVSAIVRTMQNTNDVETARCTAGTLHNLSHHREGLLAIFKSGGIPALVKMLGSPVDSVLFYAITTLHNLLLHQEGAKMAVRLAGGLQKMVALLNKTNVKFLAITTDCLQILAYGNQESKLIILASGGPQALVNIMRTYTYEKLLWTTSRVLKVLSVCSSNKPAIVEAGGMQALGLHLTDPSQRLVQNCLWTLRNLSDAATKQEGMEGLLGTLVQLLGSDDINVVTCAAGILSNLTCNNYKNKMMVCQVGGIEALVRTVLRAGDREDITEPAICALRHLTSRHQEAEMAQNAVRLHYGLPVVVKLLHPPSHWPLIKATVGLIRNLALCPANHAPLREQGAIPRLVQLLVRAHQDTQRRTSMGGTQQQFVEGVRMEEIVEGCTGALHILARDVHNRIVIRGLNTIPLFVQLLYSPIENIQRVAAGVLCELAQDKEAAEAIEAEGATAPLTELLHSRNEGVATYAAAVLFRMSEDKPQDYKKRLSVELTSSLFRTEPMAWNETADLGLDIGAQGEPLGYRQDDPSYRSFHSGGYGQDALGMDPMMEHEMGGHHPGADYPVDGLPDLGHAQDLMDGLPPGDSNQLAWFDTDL
The assay can be described thus: cell-based or functional assay.
With B1, the “NanoBRET Abs IC50” value came out at 9 µM. Consider B2, for which the “NanoBRET Abs IC50” value amounted to 8.6 µM. For the molecule B3, the “NanoBRET Abs IC50” value is above 20 µM. In the case of B4, the “NanoBRET Abs IC50” value is above 20 µM.

The next assay has as its target T2, B-cat-Halo (beta-catenin HaloTag construct expressed in HEK293 cells) (UniProt P35222 1-781).
T2 sequence (looked up): T1 sequence (looked up)
The assay can be described thus: cell-based or functional assay.
In the case of B5, the “NanoBRET Abs IC50” value stood at 13.5 µM. Regarding B6, the “NanoBRET Abs IC50” value is 20.9 µM. On to B7, for which the “NanoBRET Abs IC50” value worked out at 48.6 µM. Take B8: the “NanoBRET Abs IC50” value came out at 26.4 µM. As for B9, the “NanoBRET Abs IC50” value was determined as 13.7 µM. B10: the “NanoBRET Abs IC50” value worked out at 18.5 µM. For the molecule B11, the “NanoBRET Abs IC50” value turned out to be 4.8 µM. As for B12, the “NanoBRET Abs IC50” value is 18 µM.

As to B13, the “NanoBRET Abs IC50” value was above 20 µM. On to B14, for which the “NanoBRET Abs IC50” value turned out to be 4.4 µM. On to B15, for which the “NanoBRET Abs IC50” value was found to be 21.6 µM. With B16, the “NanoBRET Abs IC50” value was determined as 3.2 µM.

The target in the next assay is T3, B-cat-Halo (UniProt P35222 1-781).
T3 sequence (looked up): T1 sequence (looked up)
Briefly: cell-based or functional assay.
As to B17, the “NanoBRET Abs IC50” value was 3.7 µM. Consider B18, for which the “NanoBRET Abs IC50” value stood at 25.5 µM. On the same count and under the same terms, the result for B19 reads 6.4 µM; that for B20, 6.4 µM.

On to B21, for which the “NanoBRET Abs IC50” value was above 20 µM. For the molecule B22, the “NanoBRET Abs IC50” value worked out at 4.3 µM. On to B23, for which the “NanoBRET Abs IC50” value stood at 4.3 µM. Same read-out and setting: the result for B24 reads 36.2 µM. B25: the “NanoBRET Abs IC50” value worked out at 2.9 µM. B26: the “NanoBRET Abs IC50” value came to 3.1 µM. Still for that read-out and setting: to B27 belongs 17.5 µM; to B28, 42.2 µM.
